Reference: patent US20220289816A1, “IMMUNOTHERAPY WITH B*07 RESTRICTED PEPTIDES AND COMBINATION OF PEPTIDES AGAINST CANCERS AND RELATED METHODS” (Immatics Biotechnologies GmbH, priority 2018, published 2022)

target: HLA-B*07 (Homo sapiens, UniProt P01889); experiment: MHC binding assay (UV-ligand exchange, ELISA of stabilized MHC complexes); settings: peptide exchange yield on HLA-B*07, UV-ligand exchange
From the text: Candidate peptides for T cell based therapies according to the present invention were further tested for their MHC binding capacity (affinity). The individual peptide-MHC complexes were produced by UV-ligand exchange, where a UV-sensitive peptide is cleaved upon UV-irradiation and exchanged with the peptide of interest as analyzed. Only peptide candidates that can effectively bind and stabilize the peptide-receptive MHC molecules prevent dissociation of the MHC complexes. To determine the yield of the exchange reaction, an ELISA was performed based on the detection of the light chain (β2m) of stabilized MHC complexes. The assay was performed as generally described in Rodenko et al. (Rodenko et al., 2006)
96 well MAXISorp plates (NUNC) were coated over night with 2 ug/ml streptavidin in PBS at room temperature, washed 4× and blocked for 1 h at 37° C. in 2% BSA containing blocking buffer. […] Peptide-MHC monomers of the UV-exchange reaction were diluted 100-fold in blocking buffer. Samples were incubated for 1 h at 37° C., washed four times, incubated with 2 ug/ml HRP conjugated anti-[…] for 1 h at 37° C., washed again and detected with TMB solution that is stopped with […]. Absorption was measured at 450 nm. Candidate peptides that show a high exchange yield (preferably higher than 50%, most preferred higher than 75%) are generally preferred for a generation and production of antibodies or fragments thereof, and/or T cell receptors or fragments thereof, as they show sufficient avidity to the MHC molecules and prevent dissociation of the MHC complexes.

| Substance | Peptide exchange |
| --- | --- |
| 2 (VPGSDPARYEFL; listed as Homo sapiens) [compound 2] | +++ (>50 = +++) |
| 7 (RPSQLAPATL; listed as Homo sapiens) [compound 7] | +++ (>50 = +++) |
| 8 (MPKTNLSKM; listed as Homo sapiens) [compound 8] | +++ (>50 = +++) |
| 10 (SPMEAELVRRIL; listed as Homo sapiens) [compound 10] | ++++ (>75% = ++++) |
| 11 (APLPRPGAV; listed as Homo sapiens) [compound 11] | ++++ (>75% = ++++) |
| 13 (LPNTGRIGQL; listed as Homo sapiens) [compound 13] | +++ (>50 = +++) |
| 14 (AVHEIGHSL; listed as Homo sapiens) [compound 14] | +++ (>50 = +++) |
| 15 (KPGFNISIL; listed as Homo sapiens) [compound 15] | ++++ (>75% = ++++) |
| 16 (FPAPPAHWF; listed as Homo sapiens) [compound 16] | ++++ (>75% = ++++) |
| 18 (MALSVLRLAL; listed as Homo sapiens) [compound 18] | ++ (>20% = ++) |
| 19 (WPRLPGAGL; listed as Homo sapiens) [compound 19] | +++ (>50 = +++) |
| 20 (MVLGIGPVL; listed as Homo sapiens) [compound 20] | ++++ (>75% = ++++) |
| 22 (LPQLKPAL; listed as Homo sapiens) [compound 22] | ++++ (>75% = ++++) |
| 25 (RPQGAVGGL; listed as Homo sapiens) [compound 25] | +++ (>50 = +++) |
| 27 (RIRVTSEVL; listed as Homo sapiens) [compound 27] | +++ (>50 = +++) |
| 28 (LPAPTSLVL; listed as Homo sapiens) [compound 28] | ++++ (>75% = ++++) |
| 29 (APLRVHITSL; listed as Homo sapiens) [compound 29] | ++++ (>75% = ++++) |
| 30 (YPGFTKRL; listed as Homo sapiens) [compound 30] | +++ (>50 = +++) |
| 31 (RPGPSDPAA; listed as Homo sapiens) [compound 31] | +++ (>50 = +++) |
| 32 (APMAPGRSPL; listed as Homo sapiens) [compound 32] | ++++ (>75% = ++++) |
| 34 (APMAPGRSP; listed as Homo sapiens) [compound 34] | +++ (>50 = +++) |
| 35 (APLPPPRAL; listed as Homo sapiens) [compound 35] | +++ (>50 = +++) |
| 36 (RPFSREMDL; listed as Homo sapiens) [compound 36] | +++ (>50 = +++) |
| 37 (LPPPRALTL; listed as Homo sapiens) [compound 37] | +++ (>50 = +++) |
| 39 (QPRPSSEKI; listed as Homo sapiens) [compound 39] | +++ (>50 = +++) |
| 40 (FPRTVKHIDAAL; listed as Homo sapiens) [compound 40] | ++++ (>75% = ++++) |

| Substance | Peptide exchange |
| --- | --- |
| 41 (MPAGGGPRSL; listed as Homo sapiens) [compound 41] | ++++ (>75% = ++++) |
| 42 (APLKMLAL; listed as Homo sapiens) [compound 42] | ++++ (>75% = ++++) |
| 43 (APTPRPKVL; listed as Homo sapiens) [compound 43] | ++++ (>75% = ++++) |
| 44 (SPSQTVQRAV; listed as Homo sapiens) [compound 44] | ++++ (>75% = ++++) |
| 46 (QPISGNPVTL; listed as Homo sapiens) [compound 46] | +++ (>50 = +++) |
| 47 (RPRQTGALM; listed as Homo sapiens) [compound 47] | ++++ (>75% = ++++) |
| 50 (PEKARAFL; listed as Homo sapiens) [compound 50] | +++ (>50 = +++) |
| 52 (KEDNPSGHTYTL; listed as Homo sapiens) [compound 52] | +++ (>50 = +++) |
| 54 (VPSCGRSVEGL; listed as Homo sapiens) [compound 54] | +++ (>50 = +++) |
| 60 (RPYSIYPHGVTF; listed as Homo sapiens) [compound 60] | ++++ (>75% = ++++) |
| 62 (KPQSTISGL; listed as Homo sapiens) [compound 62] | +++ (>50 = +++) |
| 63 (FPHMATTAF; listed as Homo sapiens) [compound 63] | +++ (>50 = +++) |
| 65 (FPNVYSTLVL; listed as Homo sapiens) [compound 65] | ++++ (>75% = ++++) |
| 66 (LPMTVISVL; listed as Homo sapiens) [compound 66] | ++++ (>75% = ++++) |
| 67 (VPVSRPVL; listed as Homo sapiens) [compound 67] | ++++ (>75% = ++++) |
| 69 (RPEDGRPRL; listed as Homo sapiens) [compound 69] | +++ (>50 = +++) |
| 70 (VPAQRLGLL; listed as Homo sapiens) [compound 70] | ++++ (>75% = ++++) |
| 71 (APFAPLHGGGSL; listed as Homo sapiens) [compound 71] | +++ (>50 = +++) |
| 72 (APCNGNVAV; listed as Homo sapiens) [compound 72] | +++ (>50 = +++) |
| 73 (LPVSSPVTL; listed as Homo sapiens) [compound 73] | ++++ (>75% = ++++) |
| 74 (VPVSHPVL; listed as Homo sapiens) [compound 74] | ++++ (>75% = ++++) |
| 75 (HVRPQTNCI; listed as Homo sapiens) [compound 75] | +++ (>50 = +++) |
| 76 (KPKVESQAL; listed as Homo sapiens) [compound 76] | ++++ (>75% = ++++) |
| 77 (QPRLVPGETL; listed as Homo sapiens) [compound 77] | ++++ (>75% = ++++) |
| 78 (HPSQESPTL; listed as Homo sapiens) [compound 78] | +++ (>50 = +++) |
| 79 (GPASDHPSL; listed as Homo sapiens) [compound 79] | +++ (>50 = +++) |

| Substance | Peptide exchange |
| --- | --- |
| 80 (SALPTTISF; listed as Homo sapiens) [compound 80] | +++ (>50 = +++) |
| 81 (IAYPSLREAAL; listed as Homo sapiens) [compound 81] | ++ (>20% = ++) |
| 83 (AVSSHHNVI; listed as Homo sapiens) [compound 83] | ++ (>20% = ++) |
| 84 (MPMQDIKMI; listed as Homo sapiens) [compound 84] | +++ (>50 = +++) |
| 85 (MPMQDIKMILKM; listed as Homo sapiens) [compound 85] | +++ (>50 = +++) |
| 86 (ALLLRGVTL; listed as Homo sapiens) [compound 86] | ++ (>20% = ++) |
| 87 (APVGGNVTSSF; listed as Homo sapiens) [compound 87] | +++ (>50 = +++) |
| 88 (KPSAVKDSIY; listed as Homo sapiens) [compound 88] | ++ (>20% = ++) |
| 89 (FLIPRAGWLAGL; listed as Homo sapiens) [compound 89] | ++ (>20% = ++) |
| 91 (FPRLVGPDFF; listed as Homo sapiens) [compound 91] | ++++ (>75% = ++++) |
| 92 (TSPLPPTV; listed as Homo sapiens) [compound 92] | +++ (>50 = +++) |
| 93 (SVAIAHGVF; listed as Homo sapiens) [compound 93] | ++++ (>75% = ++++) |
| 94 (LPMSKRQEY; listed as Homo sapiens) [compound 94] | +++ (>50 = +++) |
| 95 (RTKEEINEL; listed as Homo sapiens) [compound 95] | ++ (>20% = ++) |
| 96 (QPSLVQAIF; listed as Homo sapiens) [compound 96] | ++++ (>75% = ++++) |
| 98 (FPCSALLACF; listed as Homo sapiens) [compound 98] | ++++ (>75% = ++++) |
| 99 (MPVSAFTVI; listed as Homo sapiens) [compound 99] | ++++ (>75% = ++++) |
| 101 (KPGLPGLK; listed as Homo sapiens) [compound 101] | + (>10% = +) |
| 102 (MAGPAIHTAPM; listed as Homo sapiens) [compound 102] | ++ (>20% = ++) |
| 103 (REPIMKADML; listed as Homo sapiens) [compound 103] | ++ (>20% = ++) |
| 104 (RPLPNSVIHV; listed as Homo sapiens) [compound 104] | +++ (>50 = +++) |
| 105 (RPRYETGVCA; listed as Homo sapiens) [compound 105] | ++++ (>75% = ++++) |
| 106 (APFHIDRLF; listed as Homo sapiens) [compound 106] | +++ (>50 = +++) |
| 108 (APRGSPPI; listed as Homo sapiens) [compound 108] | +++ (>50 = +++) |
